# Laboratory results taken from IntAct's records for PubMed 11575918.
# B1: RING finger protein Z (Lymphocytic choriomeningitis virus (strain Armstrong)), P18541 (parent)
# chain: MGQGKSREEKGTNSTNRAEILPDTTYLGPLSCKSCWQKFDSLVRCHDHYLCRHCLNLLLSVSDRCPLCKYPLPTRLKISTAPSSPPPYEE
# Variants of: B1
# Conditions: with if4e_human EIF4E
row,Variant,effect of a mutation on the interaction
1,C32G;C35F,decreasing interaction
2,C65A;C68A,decreasing interaction
